Test results from the supplement of paper PMC5998384.

Key:
HeLa Kyoto [1] = assay: thermal stability score vs G1/S (z-score of summed log2 fold changes over temperatures); higher = more thermally stable than in G1/S
HeLa Kyoto [2] = assay: melting temperature (median over replicates), in situ; higher = more thermally stable
HeLa Kyoto [3] = assay: solubility change mitosis vs G1/S (difference of NP-40 vs SDS log2 ratios) (log2 ratio difference); higher = more soluble in mitosis
HeLa Kyoto [4] = assay: solubility in G1/S (NP-40 vs SDS abundance) (log2 ratio); higher = more soluble; details: cell cycle stage: G1/S
[5] = cell cycle stage: early G1 (4.5 h after nocodazole release)
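Wherever melting temperature (median over replicates), in situ is given: HeLa Kyoto cells synchronized by double thymidine or nocodazole block, proteins quantified by TMT10plex mass spectrometry, three independent biological replicates.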
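Wherever solubility change mitosis vs G1/S (difference of NP-40 vs SDS log2 ratios) is given: synchronized HeLa Kyoto cells (double thymidine block for G1/S, nocodazole release for mitosis), protein amounts in NP-40 versus SDS lysates quantified by mass spectrometry, three biological replicates.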
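Wherever solubility in G1/S (NP-40 vs SDS abundance) is given: HeLa Kyoto cells arrested at G1/S by double thymidine block, proteins quantified by TMT10plex mass spectrometry in mild NP-40 versus SDS extracts, three biological replicates.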
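Wherever thermal stability score vs G1/S (z-score of summed log2 fold changes over temperatures) is given: synchronized HeLa Kyoto cells, proteins quantified by TMT10plex mass spectrometry, three biological replicates, mitosis taken 0.5 h after nocodazole release, G1/S directly after double thymidine block.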

Sequence | thermal stability score (HeLa Kyoto [1]; [5]) | thermal stability score (HeLa Kyoto [1]; cell cycle stage: mitosis) | melting temperature (HeLa Kyoto [2]; cell cycle stage: G1/S) | melting temperature (HeLa Kyoto [2]; cell cycle stage: mitosis) | solubility change mitosis (log2) (HeLa Kyoto [3]) | solubility in G1/S (log2) (HeLa Kyoto [4])
MAGPRVEVDGSIMEGGGQILRVSTALSCLLGLPLRVQKIRAGRSTPGLRPQHLSGLEMIRDLCDGQLEGAEIGSTEITFTPEKIKGGIHTADTKTAGSVCLLMQVSMPCVLFAASPSELHLKGGTNAEMAPQIDYTVMVFKPIVEKFGFIFNCDIKTRGYYPKGGGEVIVRMSPVKQLNPINLTERGCVTKIYGRAFVAGVLPFKVAKDMAAAAVRCIRKEIRDLYVNIQPVQEPKDQAFGNGNGIIIIAETSTGCLFAGSSLGKRGVNADKVGIEAAEMLLANLRHGGTVDEYLQDQLIVFMALANGVSRIKTGPVTLHTQTAIHFAEQIAKAKFIVKKSEDEEDAAKDTYIIECQGIGMTNPNL [RTCA] | -1.26 | -1.94 | 54.4 °C | 54.4 °C | -0.173 | 0.177
MAGQQFQYDDSGNTFFYFLTSFVGLIVIPATYYLWPRDQNAEQIRLKNIRKVYGRCMWYRLRLLKPQPNIIPTVKKIVLLAGWALFLFLAYKVSKTDREYQEYNPYEVLNLDPGATVAEIKKQYRLLSLKYHPDKGGDEVMFMRIAKAYAALTDEESRKNWEEFGNPDGPQATSFGIALPAWIVDQKNSILVLLVYGLAFMVILPVVVGSWWYRSIRYSGDQILIRTTQIYTYFVYKTRNMDMKRLIMVLAGASEFDPQYNKDATSRPTDNILIPQLIREIGSINLKKNEPPLTCPYSLKARVLLLSHLARMKIPETLEEDQQFMLKKCPALLQEMVNVICQLIVMARNREEREFRAPTLASLENCMKLSQMAVQGLQQFKSPLLQLPHIEEDNLRRVSNHKKYKIKTIQDLVSLKESDRHTLLHFLEDEKYEEVMAVLGSFPYVTMDIKSQVLDDEDSNNITVGSLVTVLVKLTRQTMAEVFEKEQSICAAEEQPAEDGQGETNKNRTKGGWQQKSKGPKKTAKSKKKKPLKKKPTPVLLPQSKQQKQKQANGVVGNEAAVKEDEEEVSDKGSDSEEEETNRDSQSEKDDGSDRDSDREQDEKQNKDDEAEWQELQQSIQRKERALLETKSKITHPVYSLYFPEEKQEWWWLYIADRKEQTLISMPYHVCTLKDTEEVELKFPAPGKPGNYQYTVFLRSDSYMGLDQIKPLKLEVHEAKPVPENHPQWDTAIEGDEDQEDSEGFEDSFEEEEEEEEDDD [SEC63] | -0.144 | -1.37 | 53 °C | 53.1 °C | -0.1 | -0.14
MAGRGGAARPNGPAAGNKICQFKLVLLGESAVGKSSLVLRFVKGQFHEYQESTIGAAFLTQTVCLDDTTVKFEIWDTAGQERYHSLAPMYYRGAQAAIVVYDITNTDTFARAKNWVKELQRQASPNIVIALAGNKADLASKRAVEFQEAQAYADDNSLLFMETSAKTAMNVNEIFMAIAKKLPKNEPQNATGAPGRNRGVDLQENNPASRSQCCSN [RAB5C] | -2.16 | -3.11 | 58.7 °C | 59.4 °C | -0.161 | 0.382
MAGRLLGKALAAVSLSLALASVTIRSSRCRGIQAFRNSFSSSWFHLNTNVMSGSNGSKENSHNKARTSPYPGSKVERSQVPNEKVGWLVEWQDYKPVEYTAVSVLAGPRWADPQISESNFSPKFNEKDGHVERKSKNGLYEIENGRPRNPAGRTGLVGRGLLGRWGPNHAADPIITRWKRDSSGNKIMHPVSGKHILQFVAIKRKDCGEWAIPGGMVDPGEKISATLKREFGEEALNSLQKTSAEKREIEEKLHKLFSQDHLVIYKGYVDDPRNTDNAWMETEAVNYHDETGEIMDNLMLEAGDDAGKVKWVDINDKLKLYASHSQFIKLVAEKRDAHWSEDSEADCHAL [NUDT9] | -0.398 | -0.161 | 50.3 °C | 50.5 °C | 0.00145 | 0.41
MAGSRQRGLRARVRPLFCALLLSLGRFVRGDGVGGDPAVALPHRRFEYKYSFKGPHLVQSDGTVPFWAHAGNAIPSSDQIRVAPSLKSQRGSVWTKTKAAFENWEVEVTFRVTGRGRIGADGLAIWYAENQGLEGPVFGSADLWNGVGIFFDSFDNDGKKNNPAIVIIGNNGQIHYDHQNDGASQALASCQRDFRNKPYPVRAKITYYQNTLTVMINNGFTPDKNDYEFCAKVENMIIPAQGHFGISAATGGLADDHDVLSFLTFQLTEPGKEPPTPDKEISEKEKEKYQEEFEHFQQELDKKKEEFQKGHPDLQGQPAEEIFESVGDRELRQVFEGQNRIHLEIKQLNRQLDMILDEQRRYVSSLTEEISKRGAGMPGQHGQITQQELDTVVKTQHEILRQVNEMKNSMSETVRLVSGMQHPGSAGGVYETTQHFIDIKEHLHIVKRDIDNLVQRNMPSNEKPKCPELPPFPSCLSTVHFIIFVVVQTVLFIGYIMYRSQQEAAAKKFF [LMAN1] | 3.5 | 5.07 | 53.3 °C | 53.5 °C | -0.0873 | 0.173
MAGTGLVAGEVVVDALPYFDQGYEAPGVREAAAALVEEETRRYRPTKNYLSYLTAPDYSAFETDIMRNEFERLAARQPIELLSMKRYELPAPSSGQKNDITAWQECVNNSMAQLEHQAVRIENLELMSQHGCNAWKVYNENLVHMIEHAQKELQKLRKHIQDLNWQRKNMQLTAGSKLREMESNWVSLVSKNYEIERTIVQLENEIYQIKQQHGEANKENIRQDF [BCAS2] | -0.858 | -0.925 | 50.4 °C | 50.3 °C | 0.721 | -0.134
